The text below walks through data of US20250009852A1, “DEPLETING EGFR AND HER2 OVERCOMES RESISTANCE TO EGFR INHIBITORS IN COLORECTAL CANCER” (Health Research, Inc., priority 2021, published 2025).

The target in series [1] is Epidermal growth factor receptor (EGFR), wild type, P00533.
Series [2] addresses T1, Epidermal growth factor receptor (EGFR), wild type (human, UniProt P00533 25-1210).
T1 construct: whole, on cells; also called WT EGFR; ErbB1
Kind of series: immunofluorescence staining and confocal microscopy of SW48 cells treated with PEPD^G278D (25 nM), anti-His tag and anti-EGFR. On the procedure:
The cells were then washed with ice-cold PBS, fixed with 4% paraformaldehyde for 20 min at room temperature (RT), washed again with ice-cold PBS and blocked with 1% BSA in PBS for 1 h at RT. […] The cells were then examined with a BZ-X700 fluorescence microscope (Keyence) with a S PL FL ELWD ADM 40xC objective. Merged images from Z-stack were organized using the ImageJ software (NIH Image).
SW48 cells were cultured in serum-free medium.

B1: PEPD^G278D (recombinant, enzymatically inactive mutant of human peptidase D, glycine 278 replaced by aspartic acid) (enzyme)
chain: AAATGPSFWLGNETLKVPLALFALNRQRLCERLRKNPAVQAGSIVVLQGGEETQRYCTDTGVLFLQESFFHWAFGVTEPGCYGVIDVDTGKSTLFVPRLPASHATWMGKIHSKEHFKEKYAVDDVQYVDEIASVLTSQKPSVLLTLRGVNTDSGSVCREASFDGISKFEVNNTILHPEIVESRVFKTDMELEVLRYTNKISSEAHREVMKAVKVGMKEYGLESLFEHYCYSRGGMRHSSYTCICGSGENSAVLHYGHAGAPNDRTIQNGDMCLFDMDGEYYSVASDITCSFPRNGKFTADQKAVYEAVLLSSRAVMGAMKPGDWWPDIDRLADRIHLEELAHMGILSGSVDAMVQAHLGAVFMPHGLGHFLGIDVHDVGGYPEGVERIDEPGLRSLRTARHLQPGMVLTVEPGIYFIDHLLDEALADPARASFLNREVLQRFRGFGGVRIEEDVVVIDSGIELLTCVPRTVEEIEACMAGCDKAFTPFSGPK
notes: Made in E. coli and purified by nickel chromatography; The His tag is placed C-terminal by the plasmid's name only; also called PEPD^G278D-His; hPEPD-G278D; not shown: His tag from pBAD/TOPO-PEPD^G278D-His
Consider B1, for which the “expression and tyrosine phosphorylation of EGFR (Western blotting, 25 nM, 48 h)” value in series [1] is “PEPD^G278D obliterated both expression and tyrosine phosphorylation of EGFR and HER2 in SW48, HCT116 and HT29 cells”. In addition, the “expression and tyrosine phosphorylation of HER2 (Western blotting, 25 nM, 48 h)” value with HER2, P04626 was “PEPD^G278D obliterated both expression and tyrosine phosphorylation of EGFR and HER2 in SW48, HCT116 and HT29 cells”. The binding result in series [2] is recorded as “binds”.
